In series [1] the test system is HeLa Kyoto. Kind of series: solubility in G1/S (NP-40 vs SDS abundance) (log2 ratio); higher = more soluble. As to conditions: cell cycle stage: G1/S.
The test system of series [2] is HeLa Kyoto. Put plainly: solubility change mitosis vs G1/S (difference of NP-40 vs SDS log2 ratios) (log2 ratio difference); higher = more soluble in mitosis.

Results on 15 substances are retold here after the supplement of paper PMC5998384.
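For solubility change mitosis vs G1/S (difference of NP-40 vs SDS log2 ratios) in this document: synchronized HeLa Kyoto cells (double thymidine block for G1/S, nocodazole release for mitosis), protein amounts in NP-40 versus SDS lysates quantified by mass spectrometry, three biological replicates.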
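For solubility in G1/S (NP-40 vs SDS abundance) in this document: HeLa Kyoto cells arrested at G1/S by double thymidine block, proteins quantified by TMT10plex mass spectrometry in mild NP-40 versus SDS extracts, three biological replicates.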

Take “MGPKRRQLTFREKSRIIQEVEENPDLRKGEIARRFNIPPSTLSTILKNKRAILASERKYGVASTCRKTNKLSPYDKLEGLLIAWFQQIRAAGLPVKGIILKEKALRIAEELGMDDFTASNGWLDRFRRRHGVVSCSGVARARARNAAPRTPAAPASPAAVPSEGSGGSTTGWRAREEQPPSVAEGYASQDVFSATETSLWYDFLPDQAAGLCGGDGRPRQATQRLSVLLCANADGSEKLPPLVAGKSAKPRAGQAGLPCDYTANSKGGVTTQALAKYLKALDTRMAAESRRVLLLAGRLAAQSLDTSGLRHVQLAFFPPGTVHPLERGVVQQVKGHYRQAMLLKAMAALEGQDPSGLQLGLTEALHFVAAAWQAVEPSDIAACFREAGFGGGPNATITTSLKSEGEEEEEEEEEEEEEEGEGEEEEEEGEEEEEEGGEGEELGEEEEVEEEGDVDSDEEEEEDEESSSEGLEAEDWAQGVVEAGGSFGAYGAQEEAQCPTLHFLEGGEDSDSDSEEEDDEEEDDEDEDDDDDEEDGDEVPVPSFGEAMAYFAMVKRYLTSFPIDDRVQSHILHLEHDLVHVTRKNHARQAGVRGLGHQS [CENPB]”: in series [1], the “solubility in G1/S (log2)” value is -0.711. Further, the “solubility change mitosis (log2)” value in series [2] was -0.105.

Regarding “MPAPAATYERVVYKNPSEYHYMKVCLEFQDCGVGLNAAQFKQLLISAVKDLFGEVDAALPLDILTYEEKTLSAILRICSSGLVKLWSSLTLLGSYKGKKCAFRVIQVSPFLLALSGNSRELVLD [RPP14]”, the “solubility in G1/S (log2)” value in series [1] is -0.294. Besides, the “solubility change mitosis (log2)” value in series [2] turned out to be 0.0872.

As for “MISAPDVVAFTKEEEYEEEPYNEPALPEEYSVPLFPFASQGANPWSKLSGAKFSRDFILISEFSEQVGPQPLLTIPNDTKVFGTFDLNYFSLRIMSVDYQASFVGHPPGSAYPKLNFVEDSKVVLGDSKEGAFAYVHHLTLYDLEARGFVRPFCMAYISADQHKIMQQFQELSAEFSRASECLKTGNRKAFAGELEKKLKDLDYTRTVLHTETEIQKKANDKGFYSSQAIEKANELASVEKSIIEHQDLLKQIRSYPHRKLKGHDLCPGEMEHIQDQASQASTTSNPDESADTDLYTCRPAYTPKLIKAKSTKCFDKKLKTLEELCDTEYFTQTLAQLSHIEHMFRGDLCYLLTSQIDRALLKQQHITNFLFEDFVEVDDRMVEKQESIPSKPSQDRPPSSSLEECPIPKVLISVGSYKSSVESVLIKMEQELGDEEYKEVEVTELSSFDPQENLDYLDMDMKGSISSGESIEVLGTEKSTSVLSKSDSQASLTVPLSPQVVRSKAVSHRTISEDSIEVLSTCPSEALIPDDFKASYPSAINEEESYPDGNEGAIRFQASISPPELGETEEGSIENTPSQIDSSCCIGKESDGQLVLPSTPAHTHSDEDGVVSSPPQRHRQKDQGFRVDFSVENANPSSRDNSCEGFPAYELDPSHLLASRDISKTSLDNYSDTTSYVSSVASTSSDRIPSAYPAGLSSDRHKKRAGQNALKFIRQYPFAHPAIYSLLSGRTLVVLGEDEAIVRKLVTALAIFVPSYGCYAKPVKHWASSPLHIMDFQKWKLIGLQRVASPAGAGTLHALSRYSRYTSILDLDNKTLRCPLYRGTLVPRLADHRTQIKRGSTYYLHVQSMLTQLCSKAFLYTFCHHLHLPTHDKETEELVASRQMSFLKLTLGLVNEDVRVVQYLAELLKLHYMQESPGTSHPMLRFDYVPSFLYKI [SMCR8]”, in series [1], the “solubility in G1/S (log2)” value was -0.0823. In series [2], the “solubility change mitosis (log2)” value is 0.0252.

As for PEAK1, the “solubility in G1/S (log2)” value in series [1] was -0.569. The “solubility change mitosis (log2)” value in series [2] is 0.302.

On to “MAAVEAAAEPVTVVAAVGPKAKDEEEEEEEPLPPCEAVRWAPVGAVAEARPGATAFLEEATAEEPGAAPGSPPDSPGRTLRRLRAERRRLDSALLALSSHFAQVQFRLRQVVRGAPAEQQRLLRELEDFAFRGCPHVLGYEGPGDPASDEGDGLPGDRPWLRGEDQSEQEKQERLETQREKQKELILQLKTQLDDLETFAYQEGSYDSLPQSVVLERQRVIIDELIKKLDMNLNEDISSLSTEELRQRVDAAVAQIVNPARVKEQLVEQLKTQIRDLEMFINFIQDEVGSPLQTGGGHCECKAGGKTGNGCSRTGSSRTPPGNSKTKAEDVKKVRETGLHLMRRALAVLQIFAVSQFGCATGQIPPTLWQRVQADRDYSPLLKRLEVSVDRVKQLALRQQPHDHVITSANLQDLSLGGKDELTMAVRKELTVAVRDLLAHGLYASSPGMSLVMAPIACLLPAFSSAPEAMHPWELFVKYYHAKNGRAYVESPARKLSQSFALPVTGGTVVTPKQSLLTAIHMVLTEHDPFKRSADSELKALVCMALNEQRLVSWVNLICKSGSLIEPHYQPWSYMAHTGFESALNLLSRLSSLKFSLPVDLAVRQLKNIKDAF [RUNDC1]”, for which the “solubility in G1/S (log2)” value in series [1] was -0.124. For the same substance, the “solubility change mitosis (log2)” value in series [2] is -0.215.

For the substance “MATVGAPRHFCRCACFCTDNLYVARYGLHVRFRGEQQLRRDYGPILRSRGCVSAKDFQQLLAELEQEVERRQRLGQESAARKALIASSYHPARPEVYDSLQDAALAPEFLAVTEYSVSPDADLKGLLQRLETVSEEKRIYRVPVFTAPFCQALLEELEHFEQSDMPKGRPNTMNNYGVLLHELGLDEPLMTPLRERFLQPLMALLYPDCGGGRLDSHRAFVVKYAPGQDLELGCHYDNAELTLNVALGKVFTGGALYFGGLFQAPTALTEPLEVEHVVGQGVLHRGGQLHGARPLGTGERWNLVVWLRASAVRNSLCPMCCREPDLVDDEGFGDGFTREEPATVDVCALT [OGFOD2]”, the “solubility in G1/S (log2)” value in series [1] was determined as 0.182. Besides, in series [2], the “solubility change mitosis (log2)” value came out at 0.112.

“MAFGKSHRDPYATSVGHLIEKATFAGVQTEDWGQFMHICDIINTTQDGPKDAVKALKKRISKNYNHKEIQLTLSLIDMCVQNCGPSFQSLIVKKEFVKENLVKLLNPRYNLPLDIQNRILNFIKTWSQGFPGGVDVSEVKEVYLDLVKKGVQFPPSEAEAETARQETAQISSNPPTSVPTAPALSSVIAPKNSTVTLVPEQIGKLHSELDMVKMNVRVMSAILMENTPGSENHEDIELLQKLYKTGREMQERIMDLLVVVENEDVTVELIQVNEDLNNAILGYERFTRNQQRILEQNKNQKEATNTTSEPSAPSQDLLDLSPSPRMPRATLGELNTMNNQLSGLNFSLPSSDVTNNLKPSLHPQMNLLALENTEIPPFAQRTSQNLTSSHAYDNFLEHSNSVFLQPVSLQTIAAAPSNQSLPPLPSNHPAMTKSDLQPPNYYEVMEFDPLAPAVTTEAIYEEIDAHQHKGAQNDGD [TOM1L1]”: in series [1], the “solubility in G1/S (log2)” value came out at 0.297. Besides, the “solubility change mitosis (log2)” value in series [2] is -0.0535.

On to “MIEVVCNDRLGKKVRVKCNTDDTIGDLKKLIAAQTGTRWNKIVLKKWYTIFKDHVSLGDYEIHDGMNLELYYQ [UBL5]”, for which the “solubility in G1/S (log2)” value in series [1] is -1.06. Further, in series [2], the “solubility change mitosis (log2)” value was found to be 0.566.

In the case of “MNPLTKVKLINELNEREVQLGVADKVSWHSEYKDSAWIFLGGLPYELTEGDIICVFSQYGEIVNINLVRDKKTGKSKGFCFLCYEDQRSTILAVDNFNGIKIKGRTIRVDHVSNYRAPKDSEEIDDVTRQLQEKGCGARTPSPSLSESSEDEKPTKKHKKDKKEKKKKKKEKEKADREVQAEQPSSSSPRRKTVKEKDDTGPKKHSSKNSERAQKSEPREGQKLPKSRTAYSGGAEDLERELKKEKPKHEHKSSSRREAREEKTRIRDRGRSSDAHSSWYNGRSEGRSYRSRSRSRDKSHRHKRARRSRERESSNPSDRWRH [RBMX2]”, the “solubility in G1/S (log2)” value in series [1] was -1.17. The “solubility change mitosis (log2)” value in series [2] came to 0.59.

In the case of “MADVEDGEETCALASHSGSSGSKSGGDKMFSLKKWNAVAMWSWDVECDTCAICRVQVMDACLRCQAENKQEDCVVVWGECNHSFHNCCMSLWVKQNNRCPLCQQDWVVQRIGK [RNF7]”, the “solubility in G1/S (log2)” value in series [1] was -0.165. Besides, the “solubility change mitosis (log2)” value in series [2] was -0.169.

Regarding “MGQCVTKCKNPSSTLGSKNGDREPSNKSHSRRGAGHREEQVPPCGKPGGDILVNGTKKAEAATEACQLPTSSGDAGRESKSNAEESSLQRLEELFRRYKDEREDAILEEGMERFCNDLCVDPTEFRVLLLAWKFQAATMCKFTRKEFFDGCKAISADSIDGICARFPSLLTEAKQEDKFKDLYRFTFQFGLDSEEGQRSLHREIAIALWKLVFTQNNPPVLDQWLNFLTENPSGIKGISRDTWNMFLNFTQVIGPDLSNYSEDEAWPSLFDTFVEWEMERRKREGEGRGALSSGPEGLCPEEQT [DCUN1D3]”, the “solubility in G1/S (log2)” value in series [1] was found to be 0.0421. In series [2], the “solubility change mitosis (log2)” value is -0.131.

For “MAAENSKQFWKRSAKLPGSIQPVYGAQHPPLDPRLTKNFIKERSKVNTVPLKNKKASSFHEFARNTSDAWDIGDDEEEDFSSPSFQTLNSKVALATAAQVLENHSKLRVKPERSQSTTSDVPANYKVIKSSSDAQLSRNSSDTCLRNPLHKQQSLPLRPIIPLVARISDQNASGAPPMTVREKTRLEKFRQLLSSQNTDLDELRKCSWPGVPREVRPITWRLLSGYLPANTERRKLTLQRKREEYFGFIEQYYDSRNEEHHQDTYRQIHIDIPRTNPLIPLFQQPLVQEIFERILFIWAIRHPASGYVQGINDLVTPFFVVFLSEYVEEDVENFDVTNLSQDMLRSIEADSFWCMSKLLDGIQDNYTFAQPGIQKKVKALEELVSRIDEQVHNHFRRYEVEYLQFAFRWMNNLLMRELPLRCTIRLWDTYQSEPEGFSHFHLYVCAAFLIKWRKEILDEEDFQGLLMLLQNLPTIHWGNEEIGLLLAEAYRLKYMFADAPNHYRR [TBC1D22B]”, the “solubility in G1/S (log2)” value in series [1] is -0.183. Moreover, in series [2], the “solubility change mitosis (log2)” value is -0.0568.

As for “MAGGRCGPQLTALLAAWIAAVAATAGPEEAALPPEQSRVQPMTASNWTLVMEGEWMLKFYAPWCPSCQQTDSEWEAFAKNGEILQISVGKVDVIQEPGLSGRFFVTTLPAFFHAKDGIFRRYRGPGIFEDLQNYILEKKWQSVEPLTGWKSPASLTMSGMAGLFSISGKIWHLHNYFTVTLGIPAWCSYVFFVIATLVFGLFMGLVLVVISECFYVPLPRHLSERSEQNRRSEEAHRAEQLQDAEEEKDDSNEEENKDSLVDDEEEKEDLGDEDEAEEEEEEDNLAAGVDEERSEANDQGPPGEDGVTREEVEPEEAEEGISEQPCPADTEVVEDSLRQRKSQHADKGL [TMX4]”, in series [1], the “solubility in G1/S (log2)” value was found to be 0.144. Besides, the “solubility change mitosis (log2)” value in series [2] is -0.172.

On to “MAAAADSFSGGPAGVRLPRSPPLKVLAEQLRRDAEGGPGAWRLSRAAAGRGPLDLAAVWMQGRVVMADRGEARLRDPSGDFSVRGLERVPRGRPCLVPGKYVMVMGVVQACSPEPCLQAVKMTDLSDNPIHESMWELEVEDLHRNIP [RMI2]”, for which the “solubility in G1/S (log2)” value in series [1] was 0.374. Moreover, the “solubility change mitosis (log2)” value in series [2] stood at 0.168.

On to “MTPVRMQHSLAGQTYAVPLIQPDLRREEAVQQMADALQYLQKVSGDIFSRISQQVEQSRSQVQAIGEKVSLAQAKIEKIKGSKKAIKVFSSAKYPAPERLQEYGSIFTGAQDPGLQRRPRHRIQSKHRPLDERALQEKLKDFPVCVSTKPEPEDDAEEGLGGLPSNISSVSSLLLFNTTENLYKKYVFLDPLAGAVTKTHVMLGAETEEKLFDAPLSISKREQLEQQVPENYFYVPDLGQVPEIDVPSYLPDLPGIANDLMYIADLGPGIAPSAPGTIPELPTFHTEVAEPLKVDLQDGVLTPPPPPPPPPPAPEVLASAPPLPPSTAAPVGQGARQDDSSSSASPSVQGAPREVVDPSGGRATLLESIRQAGGIGKAKLRSMKERKLEKKKQKEQEQVRATSQGGHLMSDLFNKLVMRRKGISGKGPGAGEGPGGAFARVSDSIPPLPPPQQPQAEEDEDDWES [WASH2P]”, for which the “solubility in G1/S (log2)” value in series [1] was 0.453. Besides, in series [2], the “solubility change mitosis (log2)” value worked out at 0.0339.
